# Experimental data published in publication PMC3680732.
# Target: T1, HOT1 DBD (crystal) (human, UniProt Q6NT76 233-345)
# T1 sequence: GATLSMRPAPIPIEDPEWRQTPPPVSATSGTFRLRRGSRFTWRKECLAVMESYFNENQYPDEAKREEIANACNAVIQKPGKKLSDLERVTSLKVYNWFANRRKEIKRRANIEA
# Test: crystal structure
binder,measurement,value
T1/T2 telomeric crystal duplex (dsDNA) DNA 1: CTGTTAGGGTTAGGGTTAG DNA 2: TCTAACCCTAACCCTAACA,binding result,binds
